In publication PMC10713628, “UniKP: a unified framework for the prediction of enzyme kinetic parameters” (Nature Communications, 2023) one finds Km, kcat and kcat/Km data, which are given here for 15 molecules.

Series [1] relates to T1, N[C@@H](Cc1ccc(O)cc1)C(=O)O.
T1 construct: full length 693 residues; pET32a, E. coli BL21(DE3); purified; tags not described
The experiment in a line: purified protein. In kind it is biochemical, Rhodotorula glutinis. The note with it: Tris-HCl, 40 °C, 30 min, pH 9.5 in table note (buffer pH 8.5 in methods).

The test system of the next series is T2, TALclu.
T2 construct: gene TAL; codon-optimised synthetic gene in pET32a, E. coli BL21(DE3) per general method; purified; tags not described
Kind of series: coumaric acid formation at […] nm. The note with it: Tris-HCl, 40 °C, 30 min; pH 9.5 in table note (buffer pH 8.5 in methods). The format is biochemical, Chryseobacterium luteum.

Another series has as its system T3, PpTAL.
T3 construct: gene TAL; codon-optimised synthetic gene in pET32a, E. coli BL21(DE3); purified; tags not described
The experiment in a line: coumaric acid formation at […] nm. In kind it is biochemical, Pleurotus pulmonarius. The note with it: Tris-HCl, 40 °C, 30 min; pH 9.5 in table note (buffer pH 8.5 in methods).

For the next series, the system named is T4, LeTAL.
T4 construct: gene TAL; codon-optimised synthetic gene in pET32a, E. coli BL21(DE3); purified; tags not described
The experiment in a line: coumaric acid formation at […] nm. The following applies: Tris-HCl, 40 °C, 30 min; pH 9.5 in table note (buffer pH 8.5 in methods). The format is biochemical, Lentinula edodes.

A further series concerns T5, TrTAL.
T5 construct: gene TAL; codon-optimised synthetic gene in pET32a, E. coli BL21(DE3); purified; tags not described
Kind of series: coumaric acid formation at […] nm. In kind it is biochemical, Tephrocybe rancida. The following applies: Tris-HCl, 40 °C, 30 min; pH 9.5 in table note (buffer pH 8.5 in methods).

The test system of series [2] is N[C@@H](Cc1ccc(O)cc1)C(=O)O. The experiment in a line: purified protein. The note with it: Tris-HCl, 40 °C, 30 min, pH 9.5 in table note (buffer pH 8.5 in methods).
Substrate in series [3]: N[C@@H](Cc1ccc(O)cc1)C(=O)O
Kind of series: purified protein. In kind it is biochemical, Rhodotorula glutinis. The following applies: Tris-HCl, 40 °C, 30 min, pH 9.5 in table note (buffer pH 8.5 in methods).

Substrate in series [4]: N[C@@H](Cc1ccc(O)cc1)C(=O)O
The experiment in a line: purified protein. In kind it is biochemical, Armillaria solidipes. The following applies: Tris-HCl, 40 °C, 30 min, pH 9.5 in table note (buffer pH 8.5 in methods).

The term Km denotes the substrate concentration at which the rate is half of its maximum. A word on the kcat: it is the number of substrate molecules converted per active site and unit of time at saturation. One may read the kcat/Km as the turnover number divided by the Michaelis constant.

RgTAL (Rhodotorula glutinis; R489T): in series [1], the Km worked out at 710 µM, the kcat was found to be 817 s⁻¹ and the kcat/Km amounted to 1.15e+06 M⁻¹ s⁻¹.

RgTAL (Rhodotorula glutinis; E366W): in series [1], the Michaelis constant (Km) was 850 µM, the kcat worked out at 31 s⁻¹ and the kcat/Km came to 36500 M⁻¹ s⁻¹.

Regarding RgTAL (Rhodotorula glutinis; Q337C), in series [1], the Km worked out at 6480 µM, the turnover number (kcat) worked out at 96.8 s⁻¹ and the kcat/Km turned out to be 14900 M⁻¹ s⁻¹.

Regarding `N[C@@H](Cc1ccc(O)cc1)C(=O)O` [L-tyrosine], the Km with TALclu came out at 50 µM; in the series on PpTAL, 40 µM; in the series with LeTAL, 70 µM; in the series with TrTAL it was 40 µM.

For the molecule PcTAL (Puccinia coronata f. sp. avenae), in series [2], the Km is 170 µM, the kcat worked out at 66.6 s⁻¹ and the kcat/Km is 392000 M⁻¹ s⁻¹.

As to RgTAL (Rhodotorula glutinis; I668S), in series [1], the Km was 3850 µM, the kcat came to 53.6 s⁻¹ and the kcat/Km came out at 13900 M⁻¹ s⁻¹.

As to “IsTAL (Ilyonectria sp. MPI-CAGE-AT-0026)”, in series [2], the Km was determined as 570 µM, the turnover number (kcat) was determined as 120 s⁻¹ and the kcat/Km was found to be 210000 M⁻¹ s⁻¹.

Regarding AaTAL (Aspergillus arachidicola), in series [2], the Km was 30 µM, the kcat stood at 25.2 s⁻¹ and the kcat/Km amounted to 841000 M⁻¹ s⁻¹.

On to RgTAL (Rhodotorula glutinis; E587V), for which, in series [1], the Km amounted to 330 µM, the kcat turned out to be 163 s⁻¹ and the kcat/Km amounted to 494000 M⁻¹ s⁻¹.

As for RgTAL (Rhodotorula glutinis; K603P), in series [1], the Km is 1150 µM, the kcat is 52.6 s⁻¹ and the kcat/Km is 45700 M⁻¹ s⁻¹.

As for RgTAL (Rhodotorula glutinis; Q337D), in series [1], the Michaelis-Menten constant (Km) was found to be 850 µM, the kcat worked out at 34.8 s⁻¹ and the kcat/Km came out at 40900 M⁻¹ s⁻¹.

RgTAL (Rhodotorula glutinis; Q10Y): in series [1], the Km was determined as 820 µM, the kcat came out at 884 s⁻¹ and the kcat/Km came to 1.08e+06 M⁻¹ s⁻¹.

Regarding RgTAL (Rhodotorula glutinis; E366H), in series [1], the Km is 480 µM, the kcat amounted to 40.3 s⁻¹ and the kcat/Km was determined as 84000 M⁻¹ s⁻¹.

B1: RgTAL (Rhodotorula glutinis) (protein)
chain: MAPRPTSQSQARTCPTTQVTQVDIVEKMLAAPTDSTLELDGYSLNLGDVVSAARKGRPVRVKDSDEIRSKIDKSVEFLRSQLSMSVYGVTTGFGGSADTRTEDAISLQKALLEHQLCGVLPSSFDSFRLGRGLENSLPLEVVRGAMTIRVNSLTRGHSAVRLVVLEALTNFLNHGITPIVPLRGTISASGDLSPLSYIAAAISGHPDSKVHVVHEGKEKILYAREAMALFNLEPVVLGPKEGLGLVNGTAVSASMATLALHDAHMLSLLSQSLTAMTVEAMVGHAGSFHPFLHDVTRPHPTQIEVAGNIRKLLEGSRFAVHHEEEVKVKDDEGILRQDRYPLRTSPQWLGPLVSDLIHAHAVLTIEAGQSTTDNPLIDVENKTSHHGGNFQAAAVANTMEKTRLGLAQIGKLNFTQLTEMLNAGMNRGLPSCLAAEDPSLSYHCKGLDIAAAAYTSELGHLANPVTTHVQPAEMANQAVNSLALISARRTTESNDVLSLLLATHLYCVLQAIDLRAIEFEFKKQFGPAIVSLIDQHFGSAMTGSNLRDELVEKVNKTLAKRLEQTNSYDLVPRWHDAFSFAAGTVVEVLSSTSLSLAAVNAWKVAAAESAISLTRQVRETFWSAASTSSPALSYLSPRTQILYAFVREELGVKARRGDVFLGKQEVTIGSNVSKIYEAIKSGRINNVLLKMLA
notes: full length 693 residues; pET32a, E. coli BL21(DE3); purified; tags not described
Consider B1, for which, in “purified protein [3]”, the Michaelis constant (Km) came out at 360 µM, the kcat is 118 s⁻¹ and the kcat/Km was found to be 327000 M⁻¹ s⁻¹.

B2: AsTAL (Armillaria solidipes) (protein)
chain: MPASVFDDINSETKSGKGVGGVSGAHRTPSLLAKFLDSHKELKSYRNGRPVKVDGHTLSIAAVTAAARYNATVDLDGSPQVKAGVMKSRAVIADKVDNGTSVYGVSTGFGGSADTRTDQPLKLGQALLQHQHAGVLPSSDRTLDVLPLLDPMASTSMPESWVRGAMLVRMNSLIRGHSGVRWELLEKINELLRANITPVVPLRSSISASGDLSPLSYVAGTLVANPSIRVFDGPKKFGARKMVSSKDALASHGIQPISLVSKEGLGILNGTAFSASVASLALNDAVHLALLAQICTALGTEALSGTLGNYAPFIHATARPHPGQVESARHIWNLLRGSKLATTHEEEVSINQDKYSLRQDRYPLRTAPQFLGPQIEDILSALSTVIQECNSTTDNPLIDGETGEVHHGGNFQAMAVSNAMEKTRLALHHIGRLLFAQSTELVNPVMNHGLPPSLAASDPSLNYHGKGVDIATAAYVAELGYLAGPVTTHIQSAEMHNQAVNSLALISARATVNALEVLTMLMSSYLYLLCQAVDLRALRREFNTGLKSILSEELSAILGSQLSSQEIDISVSSMWGVVQTTLDKTTTMDAVDQMREVATACIPALIETVSRTNAINNALSSISQFRTNVASKATKLMAELRSSYLLGGRGPAPAGPYLGKTRAVYEYIRITLGVKMHGIENLGSFPNGLGVDDVTIGQNITAIFEAIRDGNFQDAVADLFEVLPHVKL
notes: codon-optimised synthetic gene in pET32a, E. coli BL21(DE3); purified; tags not described
B2: in the series “purified protein [4]”, the Km was determined as 540 µM, the kcat amounted to 449 s⁻¹ and the specificity constant (kcat/Km) was found to be 831000 M⁻¹ s⁻¹.
